Assay results published in the supplement of paper PMC9112550, “Optimization of the antimicrobial peptide Bac7 by deep mutational scanning” (BMC Biology, 2022).

The sequences below were run on Escherichia coli TOP10 (assay: shrunken log2 fold change of peptide-encoding DNA abundance (4.5 h post-induction vs induction); higher = less antimicrobial activity (less host growth inhibition)). Conditions: time post-induction: 4.5 h; library: site-saturation at positions 5, 18, 19, 20.
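Note: peptides expressed intracellularly from a pBAD plasmid library in pooled LB shake-flask culture, induced with 0.3% L-arabinose, DNA abundance read by NGS, three biological replicates, DESeq2 with apeglm shrinkage.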

Sequence	shrunken log2 fold change
RRIRYRPPRLPRPRPRPQSVPRP	-0.11
RRIRDRPPRLPRPRPRPCMYPRP	0.126
RRIRTRPPRLPRPRPRPEWGPRP	0.249
RRIRGRPPRLPRPRPRPDYHPRP	-0.139
RRIRRRPPRLPRPRPRPNIEPRP	0.0519
RRIRFRPPRLPRPRPRPRIEPRP	-0.0896
RRIRFRPPRLPRPRPRPRDSPRP	-0.051
RRIRPRPPRLPRPRPRPQYGPRP	-0.725
RRIRFRPPRLPRPRPRPSMSPRP	-0.394
RRIRCRPPRLPRPRPRPFRAPRP	-0.277
RRIRCRPPRLPRPRPRPYEQPRP	-0.435
RRIRQRPPRLPRPRPRPALDPRP	0.296
RRIRQRPPRLPRPRPRPCAPPRP	0.226
RRIRVRPPRLPRPRPRPQDGPRP	-0.00098
RRIRFRPPRLPRPRPRPHRVPRP	-0.137
RRIRWRPPRLPRPRPRPSCFPRP	0.486
RRIRFRPPRLPRPRPRPRVPPRP	0.291
RRIRWRPPRLPRPRPRPCNTPRP	-0.169
RRIRARPPRLPRPRPRPENLPRP	0.0156
RRIRKRPPRLPRPRPRPWQAPRP	0.000778
RRIRCRPPRLPRPRPRPGMKPRP	0.062
RRIRYRPPRLPRPRPRPPYIPRP	-0.496
RRIRARPPRLPRPRPRPLAWPRP	0.721
RRIRRRPPRLPRPRPRPRHRPRP	0.178
RRIRMRPPRLPRPRPRPFNIPRP	-0.3

Sequence	shrunken log2 fold change
RRIRKRPPRLPRPRPRPHPEPRP	0.39
RRIRSRPPRLPRPRPRPAVGPRP	0.391
RRIRYRPPRLPRPRPRPTHNPRP	-0.702
RRIRARPPRLPRPRPRPSVHPRP	-0.0906
RRIRCRPPRLPRPRPRPIMHPRP	-0.135
RRIRWRPPRLPRPRPRPVGSPRP	0.445
RRIRPRPPRLPRPRPRPCKDPRP	-0.374
RRIRVRPPRLPRPRPRPMNCPRP	0.0359
RRIRGRPPRLPRPRPRPNQDPRP	0.0491
RRIRKRPPRLPRPRPRPIPFPRP	0.347
RRIRMRPPRLPRPRPRPLHHPRP	-0.0632
RRIRYRPPRLPRPRPRPLRKPRP	-0.258
RRIRHRPPRLPRPRPRPGNLPRP	-0.0177
RRIRCRPPRLPRPRPRPTPSPRP	0.736
RRIRNRPPRLPRPRPRPYHVPRP	-0.116
RRIRFRPPRLPRPRPRPTRIPRP	0.0179
RRIRMRPPRLPRPRPRPFIFPRP	-0.233
RRIRKRPPRLPRPRPRPIPVPRP	-0.193
RRIRERPPRLPRPRPRPEIVPRP	0.00903
RRIRPRPPRLPRPRPRPDQDPRP	0.0461
RRIRMRPPRLPRPRPRPEALPRP	3.81
RRIRARPPRLPRPRPRPKPTPRP	0.744
RRIRRRPPRLPRPRPRPCLRPRP	-0.0202
RRIRDRPPRLPRPRPRPWNIPRP	0.0629
RRIRVRPPRLPRPRPRPWYFPRP	-0.619

Sequence	shrunken log2 fold change
RRIRHRPPRLPRPRPRPWMGPRP	-0.205
RRIRPRPPRLPRPRPRPLILPRP	-0.559
RRIRTRPPRLPRPRPRPQWMPRP	-0.291
RRIRERPPRLPRPRPRPPVDPRP	0.125
RRIRYRPPRLPRPRPRPQGPPRP	-0.0382
RRIRKRPPRLPRPRPRPMHMPRP	-0.331
RRIRCRPPRLPRPRPRPTHRPRP	0.426
RRIRQRPPRLPRPRPRPYSNPRP	-0.0703
RRIRTRPPRLPRPRPRPGEFPRP	-0.0751
RRIRDRPPRLPRPRPRPATIPRP	0.0807
RRIRCRPPRLPRPRPRPFRNPRP	-0.0491
RRIRSRPPRLPRPRPRPPSAPRP	0.646
RRIRGRPPRLPRPRPRPFKFPRP	-0.11
RRIRHRPPRLPRPRPRPNGSPRP	-0.0827
RRIRERPPRLPRPRPRPVKDPRP	-0.189
RRIRIRPPRLPRPRPRPHPMPRP	-0.133
RRIRTRPPRLPRPRPRPYPYPRP	-0.0787
RRIRTRPPRLPRPRPRPPDYPRP	-0.0981
RRIRSRPPRLPRPRPRPSNMPRP	-1.05
RRIRRRPPRLPRPRPRPEYLPRP	-0.0446
RRIRPRPPRLPRPRPRPIGCPRP	-0.0888
RRIRQRPPRLPRPRPRPADHPRP	-0.0888
RRIRHRPPRLPRPRPRPAHVPRP	0.128
RRIRTRPPRLPRPRPRPLITPRP	-0.489
RRIRDRPPRLPRPRPRPGMIPRP	0.133
